Data reported in publication PMC11640315.

Target: Retinoid X receptor of turbot, HA-tagged (pcDNA3.1-RXR-HA) (turbot (Scophthalmus maximus))

Substance: Farnesoid X receptor of turbot, Flag-tagged (pcDNA3.1-FXR-Flag)
- activity of the SHP promoter, dual-luciferase reporter assay in HEK293 cells; co-transfection of FXR and RXR plasmids against the FXR plasmid: 3 times
